According to article PMC7057269 (Journal of Molecular Biology, 2020):
Where a chain is given by its changes, count along the chain named. * marks the point of attachment. Biotin = O=C1N[C@H]2[C@H](CS[C@H]2CCCCC(=O)*)N1; linker = not defined here

Columns and labels:
[1] = test system: Fab397; test: Isothermal titration calorimetry (ITC), NANP repeat peptides to Fab397; assay type: binding, human; conditions: for TΔS / ΔH / ΔS / No. of sites (N-value) / Kd: ITC, arithmetic mean ± SD, n = 4; for TΔS / ΔH / ΔS: Fab397, 25 °C; for No. of sites (N-value) / Kd: peptide in syringe, 8.9 μM Fab397 in cell, DPBS, 25 °C, single-site model
Method: Titrations were performed on a MicroCal Auto-iTC200 (GE Healthcare, Chicago, IL). Prior to the experiments, wild-type Fab397 was extensively dialyzed against Dulbecco's PBS (Thermo Fisher, Waltham, MA). […] The Fab and peptide concentrations were determined by UV absorbance at 280 nm and 205 nm. Molar extinction coefficients for the peptides at 205 nm were estimated using a previously published method. The titrations were all performed with peptides in the syringe and antibodies in the cell and consisted of 16 injections of 2.45 μL peptide at a rate of 0.5 μl/s […], with injection duration of 4.9 s, injection interval of 180 s, and reference power of 5 μCal. Experiments were conducted in quadruplet (N = 4) at 25 °C. Fitting of the integrated titration peaks was performed with Origin 7.0 software using a single-site binding model. The first data point was excluded from the fit as commonly done.
Data for sporozoite ELISA assay (N = 2) were fitted and plotted using GraphPad Prism, version 7.0. For mouse liver burden assay (N = 5 mice), data were compared for significance using a Mann–Whitney U test with p < 0.05 indicated a statistically significant difference. […] All statistical parameters and graphs for the mouse liver burden assay were calculated and plotted using R with the Hmisc and ggplot2 packages. Each ITC experiment was performed with four replicates (N = 4), and the data were reported as the arithmetic mean ± SD.

[2] = biological target: Fab317; set-up: method as in PMID 29138320; conditions: Fab317 with NPNA3; cited from earlier work
[3] = biological target: T1, biotinylated NPNA3 peptide (Biotin-linker-NPNANPNANPNA-NH2) (Plasmodium falciparum, synthetic CSP …, reading uncertain); test: BLI; conditions: both partners purified
T1 construct: not shown: biotin, N-terminal, kept
T1 chain: {Biotin-linker}-NPNANPNANPNA-NH2

[4] = biological target: T2, NPNA4 peptide (Ac-NPNANPNANPNANPNA-NH2) (Plasmodium falciparum, synthetic CSP …); test: ITC; conditions: both partners purified
T2 construct: also called (NANP)4
T2 chain: Ac-NPNANPNANPNANPNA-NH2

[5] = biological target: T3, NPNA8 peptide (Ac-NPNANPNANPNANPNANPNANPNANPNANPNA-NH2) (Plasmodium falciparum, synthetic CSP …); test: ITC; conditions: both partners purified
T3 construct: also called (NANP)8
T3 chain: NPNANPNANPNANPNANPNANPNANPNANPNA

[6] = biological target: T3, NPNA8 peptide …; test: negative-stain electron microscopy; conditions: both partners purified

CC(=O)N[C@@H](CC(N)=O)C(=O)N1CCC[C@H]1C(=O)N[C@@H](CC(N)=O)C(=O)N[C@@H](C)C(=O)N[C@@H](CC(N)=O)C(=O)N1CCC[C@H]1C(=O)N[C@@H](CC(N)=O)C(=O)N[C@@H](C)C(N)=O [NPNA2]
TΔS [1]: -24.51 ± 2.48 kJ/mol
ΔH [1]: -55.66 ± 2.33 kJ/mol
ΔS [1]: −19.7 ± 2.0 cal^−1·mol^−1·K^−1
No. of sites (N-value) [1]: 1.25 ± 0.02

CC(=O)N[C@@H](CC(N)=O)C(=O)N1CCC[C@H]1C(=O)N[C@@H](CC(N)=O)C(=O)N[C@@H](C)C(=O)N[C@@H](CC(N)=O)C(=O)N1CCC[C@H]1C(=O)N[C@@H](CC(N)=O)C(=O)N[C@@H](C)C(=O)N[C@@H](CC(N)=O)C(=O)N1CCC[C@H]1C(=O)N[C@@H](CC(N)=O)C(=O)N[C@@H](C)C(=O)N[C@@H](CC(N)=O)C(=O)N1CCC[C@H]1C(=O)N[C@@H](CC(N)=O)C(=O)N[C@@H](C)C(N)=O [NPNA4]
TΔS [1]: -41.35 ± 0.615 kJ/mol
ΔH [1]: -83.324 ± 0.427 kJ/mol
ΔS [1]: −33.2 ± 0.5 cal^−1·mol^−1·K^−1
Kd [1]: 0.044 ± 0.003 µM
No. of sites (N-value) [1]: 1.14 ± 0.01

NPNA3: NPNA3 peptide, bound by Fab317 in ref 29 ({Biotin-linker}-NPNANPNANPNA-NH2; reading uncertain; also: linker not given here)
Kd [2]: 0.078 ± 0.016 µM

CC(=O)N[C@@H](CC(N)=O)C(=O)N1CCC[C@H]1C(=O)N[C@@H](CC(N)=O)C(=O)N[C@@H](C)C(=O)N[C@@H](CC(N)=O)C(=O)N1CCC[C@H]1C(=O)N[C@@H](CC(N)=O)C(=O)N[C@@H](C)C(=O)N[C@@H](CC(N)=O)C(=O)N1CCC[C@H]1C(=O)N[C@@H](CC(N)=O)C(=O)N[C@@H](C)C(=O)N[C@@H](CC(N)=O)C(=O)N1CCC[C@H]1C(=O)N[C@@H](CC(N)=O)C(=O)N[C@@H](C)C(=O)N[C@@H](CC(N)=O)C(=O)N1CCC[C@H]1C(=O)N[C@@H](CC(N)=O)C(=O)N[C@@H](C)C(=O)N[C@@H](CC(N)=O)C(=O)N1CCC[C@H]1C(=O)N[C@@H](CC(N)=O)C(=O)N[C@@H](C)C(=O)N[C@@H](CC(N)=O)C(=O)N1CCC[C@H]1C(=O)N[C@@H](CC(N)=O)C(=O)N[C@@H](C)C(=O)N[C@@H](CC(N)=O)C(=O)N1CCC[C@H]1C(=O)N[C@@H](CC(N)=O)C(=O)N[C@@H](C)C(N)=O [NPNA8]
binding stoichiometry inferred from N-value ([1]; ITC with Fab397, peptide:Fab ratio, or number of Fabs per peptide as worded): two Fabs bind per peptide
TΔS [1]: -125.62 ± 0.749 kJ/mol
ΔH [1]: -167.74 ± 0.598 kJ/mol
ΔS [1]: −100.7 ± 0.6 cal^−1·mol^−1·K^−1
Kd [1]: 0.041 ± 0.003 µM
No. of sites (N-value) [1]: 0.56 ± 0.01

B1: Fab317 wild type (Fab, V domains shown)
VH: QMQLVESGGGVVQPGRSLRLSCTASGFTFSTYAMHWVRQSPGQGLQWVAVISYHSTNKYYEDSVRGRFTISRDNSKNTLYLQMNSLRAEDTAVYYCARDGYSSSFFDFWGQGTLVTVSS
VL: DIQMTQSPSTLSASVGDRVAITCRASQSISRWLAWYQQQPGKAPKLLMSGASVLESGVPSRFSGSGSGTEFTLTISSLQPDDFATYYCQHYNSYFVTFGQGTKVEIK
other [3]: 100%

B2: Fab397 wild type (Fab, V domains shown)
VH: EVQLVKSGGGLVKPGGSLRLSCAVSGFTFTDAWMSWVRQAPGKGPEWVGRIKSNPDGGTTDYAAPVRGRFTISRDDSKNTLYLQMNNLKTEDTAVYYCITDRDFYRSGGSWGQGTLVTV
VL: DIVMTQSPLSLPVTPGEPASISCRSRQSLLYSNGDNYLDWYLQKPGQSPQLLIYLGSNRAPGVPDRFSGSGSGTDFTLKISRVEAEDVGVYYCMQTLQTPHTFGQGTKLEIK
binding result [3]: binds
Kd [4]: 0.044 µM
dH [4]: -83.3 kJ/mol
stoichiometry N [4]: 1.14
Kd [5]: 0.041 µM
dH [5]: -168 kJ/mol
stoichiometry N [5]: 0.56
stoichiometry N [6]: 2

B3: Fab311 wild type (Fab, V domains shown)
VH: QVQLVESGGGVVPPGRSLRLSCATSGFTFSNYGMHWVRQAPGKGLEWVAIIWYDGSRNFYAASVEGRFTISRDNSKNTLYLQMNSLRVEDTAVYYCARAAYYDTSGYGDYWGQGTLVTVSS
VL: QSVLTQPPSVSGAPGQTVTISCTGGSSNIGAGYDVHWYQQLPGTAPKLLIYGNINRPSGVPDRFSGSKSGTSASLAITGLQAEDEADYYCQSYDRRLSGSWVFGGGTKLTVL
binding result [3]: binds

B4: Fab397 LD30A (Fab, V domains shown)
VH: B2 VH
VL: B2 VL with D35A
other [3]: 66%

B5: Fab397 HR96A (Fab, V domains shown)
VH: B2 VH with R102A
VL: B2 VL
other [3]: 77%

B6: Fab311 HW52A (Fab, V domains shown)
VH: B3 VH with W52A
VL: B3 VL
other [3]: 26%

B7: Fab317 LW32A (Fab, V domains shown)
VH: B1 VH
VL: B1 VL with W32A
other [3]: 20%

B8: Fab397 HW33A (Fab, V domains shown)
VH: B2 VH with W33A
VL: B2 VL
binding result [3]: no binding (tested: 2000 nM)

B9: Fab397 HD95A (Fab, V domains shown)
VH: B2 VH with D101A
VL: B2 VL
binding result [3]: no binding (tested: 2000 nM)

B10: Fab397 LY32A (Fab, V domains shown)
VH: B2 VH
VL: B2 VL with Y37A
binding result [3]: no binding (tested: 2000 nM)
